Source: patent US20140378537A1 (Genentech, published 2014)

B1: Flag-tagged BATF (other, murine, UniProt O35284 1-125, looked up)
chain: MPHSSDSSDSSFSRSPPPGKQDSSDDVRKVQRREKNRIAAQKSRQRQTQKADTLHLESEDLEKQNAALRKEIKQLTEELKYFTSVLSSHEPLCSVLASGTPSPPEVVYSAHAFHQPHISSPRFQP
notes: not shown: Flag tag
B2: murine BATF (other, UniProt O35284 1-125, looked up)
chain: B1 chain
notes: AP-1 family transcription factor, used as nuclear extract
B3: murine IRF-4 (other)
chain: MNLETGSRGSEFGMSAVSCGNGKLRQWLIDQIDSGKYPGLVWENEEKSVFRIPWKHAGKQDYNREEDAALFKAWALFKGKFREGIDKPDPPTWKTRLRCALNKSNDFEELVERSQLDISDPYKVYRIVPEGAKKGAKQLTLDDTQMAMGHPYPMTAPYGSLPAQQVHNYMMPPHDRSWRDYAPDQSHPEIPYQCPVTFGPRGHHWQGPSCENGCQVTGTFYACAPPESQAPGIPIEPSIRSAEALALSDCRLHICLYYRDILVKELTTTSPEGCRISHGHTYDVSNLDQVLFPYPDDNGQRKNIEKLLSHLERGLVLWMAPDGLYAKRLCQSRIYWDGPLALCSDRPNKLERDQTCKLFDTQQFLSELQVFAHHGRPAPRFQVTLCFGEEFPDPQRQRKLITAHVEPLLARQLYYFAQQNTGHFLRGYELPEHVTTPDYHRSLRHSSIQE
notes: Transcription factor; Expressed from CMV vectors encoding murine IRF-4 in 293T cells and used as nuclear extract, or endogenous in mouse Th17 nuclear extracts; also called Pip
B4: murine IRF-3 (other, UniProt P70671 1-419, looked up)
chain: METPKPRILPWLVSQLDLGQLEGVAWLDESRTRFRIPWKHGLRQDAQMADFGIFQAWAEASGAYTPGKDKPDVSTWKRNFRSALNRKEVLRLAADNSKDPYDPHKVYEFVTPGARDFVHLGASPDTNGKSSLPHSQENLPKLFDGLILGPLKDEGSSDLAIVSDPSQQLPSPNVNNFLNPAPQENPLKQLLAEEQWEFEVTAFYRGRQVFQQTLFCPGGLRLVGSTADMTLPWQPVTLPDPEGFLTDKLVKEYVGQVLKGLGNGLALWQAGQCLWAQRLGHSHAFWALGEELLPDSGRGPDGEVHKDKDGAVFDLRPFVADLIAFMEGSGHSPRYTLWFCMGEMWPQDQPWVKRLVMVKVVPTCLKELLEMAREGGASSLKTVDLHISNSQPISLTSDQYKAYLQDLVEDMDFQATGNI
notes: Used as 293T nuclear extract
B5: murine IRF-8 (other)
chain: MCDRNGGRRLRQWLIEQIDSSMYPGLIWENDEKTMFRIPWKHAGKQDYNQEVDASIFKAWAVFKGKFKEGDKAEPATWKTRLRCALNKSPDFEEVTDRSQLDISEPYKVYRIVPEEEQKCKLGVAPAGCMSEVPEMECGRSEIEELIKEPSVDEYMGMTKRSPSPPEACRSQILPDWWVQQPSAGLPLVTGYAAYDTHHSAFSQMVISFYYGGKLVGQATTTCLEGCRLSLSQPGLPKLYGPDGLEPVCFPTADTIPSERQRQVTRKLFGHLERGVLLHSNRKGVFVKRLCQGRVFCSGNAVVCKGRPNKLERDEVVQVFDTNQFIRELQQFYATQSRLPDSRVVLCFGEEFPDTVPLRSKLILVQVEQLYARQLVEEAGKSCGAGSLMPALEEPQPDQAFRMFPDICTSHQRPFFRENQQITV
notes: Expressed from a CMV vector encoding murine IRF-8 in 293T cells and used as nuclear extract; also called ICSBP

Experiments:
His-tagged IRF4 = target: T1, His-tagged IRF4 (murine, UniProt Q64287 1-450); experiment: EMSA, 293T nuclear extracts, CTLA-4 and Bcl11b AICE DNA probes (DNA-dependent ternary complex)
T1 construct: not shown: His tag
T1 sequence: B3 chain
Method: Positions of various protein/DNA complexes are indicated. Nuclear extracts were incubated with either the wild type Bcl11b or CTLA-4 probes or their indicated mutant counterparts in which either the IRF or AP-1 site or both were altered.
(§1) Nuclear extracts were prepared from 293T cells (2×107), 48 hours after their transfection or from Th17 cells (8×107), 42 hours after their activation and differentiation. Cells were incubated for 10 min in 1 ml of hypotonic buffer (10 mM Hepes pH7.6, 10 mM KCl, 0.1 mM EGTA, 1.5 mM MgCl, 1 mM DTT, 0.5 mM PMSF and the complete protease inhibitor mixture (Roche, #11697498001) and then lysed with the addition of 0.01% Triton-x-100. After centrifugation at maximum speed in an Eppendorf microfuge for 15 seconds the nuclear pellet was resuspended in 80 μl of the following buffer (420 mM NaCl, 20 mM Hepes pH7.9, 0.2 mM EDTA, 25% Glycerol, 1 mM DTT, 0.5 mM PMSF with complete protease inhibitor mixture). Nuclear proteins were extracted with intermittent vortexing and incubation for 15 minutes at […]. In-vitro binding assays were performed using reagents from the light-shift chemiluminescent EMSA kit (Thermo scientific) according to the manufacturer's protocol, with the exception of using FAMlabeled probes (Table 2, below). Protein-DNA complexes were resolved using 6%-TBE Gels (Invitrogen) at 100V and imaged with a Typhoon Trio Imager (Amersham Biosciences). […]

murine IRF-4 = target: B3; experiment: EMSA, Th17 nuclear extracts, Bcl11b and CTLA-4 probes
Method: as §1

murine JunB = target: T2, murine JunB (murine, UniProt P09450 1-344); experiment: EMSA supershift, Th17 nuclear extracts, IRF-site-mutated AICE probes
T2 construct: AP-1 family transcription factor, used as nuclear extract
T2 sequence (looked up): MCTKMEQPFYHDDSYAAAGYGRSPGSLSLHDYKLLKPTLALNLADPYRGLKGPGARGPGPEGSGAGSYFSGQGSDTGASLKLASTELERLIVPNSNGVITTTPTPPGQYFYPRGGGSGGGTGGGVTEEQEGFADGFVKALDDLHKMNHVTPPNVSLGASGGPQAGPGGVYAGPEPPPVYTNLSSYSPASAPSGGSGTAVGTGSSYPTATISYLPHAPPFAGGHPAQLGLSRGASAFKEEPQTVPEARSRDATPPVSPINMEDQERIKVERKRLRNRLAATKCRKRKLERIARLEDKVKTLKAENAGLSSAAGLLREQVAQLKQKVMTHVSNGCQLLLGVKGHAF

murine BATF = target: B2; experiment: cell-based or functional assay
c-Jun/BATF heterodimer = target: T3, c-Jun/BATF heterodimer (murine, UniProt P05627 1-334; O35284 1-125); experiment: EMSA, 293T nuclear extracts, AICE probes
T3 construct: also called BATF/cJun
Source text: (§2) (a-d) EMSAs using the Bcl11b probe and 293T nuclear extracts as a source of indicated proteins (a) c-Jun, BATF, IRF-4, (b) FosL2, JunB, IRF-4, (c) JunB, BATF, IRF-8 or (d) JunB, BATF, IRF-3 (e) EMSA using an ISRE containing probe and IRF-3 or IRF-4. Complexes were supershifted with indicated antibodies. Red and green arrows mark the ternary and quaternary protein-DNA complexes, respectively as in FIG. 1d. Data are representative of at least two independent experiments. (f-h) Th0 cells and Th2 cells differentiated in vitro (42 hours) and LPS-activated dendritic cells (6 hours) were subjected to chromatin crosslinking and immunoprecipitation with antibodies directed against IRF-4. Immunoprecipitated chromatin was deep sequenced and analyzed as in FIG. 3a.
(§3) Nuclear extracts were prepared from 293T cells (2×107), 48 hours after their transfection or from Th17 cells (8×107), 42 hours after their activation and differentiation. […]

JunB/FosL2 heterodimer = target: T4, JunB/FosL2 heterodimer (murine, UniProt P09450 1-344; P47930 1-326); experiment: EMSA on AICE DNA probes, 293T nuclear extracts
T4 construct: also called FosL2/JunB heterodimer
T4 sequence (looked up) 1: T2 sequence (looked up)
T4 sequence (looked up) 2: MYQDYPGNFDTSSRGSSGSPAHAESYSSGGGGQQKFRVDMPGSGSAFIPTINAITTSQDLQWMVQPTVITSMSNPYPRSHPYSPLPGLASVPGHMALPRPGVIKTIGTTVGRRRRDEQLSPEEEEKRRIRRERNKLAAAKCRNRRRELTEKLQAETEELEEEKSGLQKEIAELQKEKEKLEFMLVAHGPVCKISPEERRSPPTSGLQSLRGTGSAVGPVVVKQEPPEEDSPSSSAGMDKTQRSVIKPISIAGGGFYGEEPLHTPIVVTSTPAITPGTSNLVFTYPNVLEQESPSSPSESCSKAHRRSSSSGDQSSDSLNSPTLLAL
Source text: as §2, §3

BATF/JunB heterodimer [1] = target: T5, BATF/JunB heterodimer (murine, UniProt O35284 1-125; P09450 1-344); experiment: EMSA on Bcl11b AICE DNA probe, 293T nuclear extracts
T5 construct: Formed by mixing 293T nuclear extracts, or endogenous in Th17 nuclear extracts; also called BATF/JunB complex
T5 sequence (looked up) 1: B1 chain
T5 sequence (looked up) 2: T2 sequence (looked up)
Source text: as §2, §3

BATF/JunB heterodimer [2] = target: T5, BATF/JunB heterodimer; experiment: EMSA, 293T nuclear extracts, AICE probes
Source text: as §2, §3

T3 sequence (P05627 whole entry, one chain of several): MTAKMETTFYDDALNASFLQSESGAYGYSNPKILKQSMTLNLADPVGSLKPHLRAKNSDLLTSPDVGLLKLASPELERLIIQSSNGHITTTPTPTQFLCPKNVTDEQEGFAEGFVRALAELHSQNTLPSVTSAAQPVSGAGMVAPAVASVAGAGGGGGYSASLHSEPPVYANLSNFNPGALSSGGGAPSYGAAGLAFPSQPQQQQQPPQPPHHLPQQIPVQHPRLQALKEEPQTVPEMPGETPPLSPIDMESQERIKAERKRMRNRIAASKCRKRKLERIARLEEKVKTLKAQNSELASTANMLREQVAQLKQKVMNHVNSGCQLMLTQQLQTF

B1
binding result (His-tagged IRF4): binds

B2
binding result (murine IRF-4): binds | binding result (murine JunB): binds

B3
CTLA-4 levels (intracellular, flow cytometry) in T cells transduced with IRF4 and/or BATF retroviruses (murine BATF): 3 fold | ICOS levels (surface expression, flow cytometry) in Th0 cells transduced with IRF4 and/or BATF retroviruses (murine BATF): ~6 fold | frequency of IL-17A producing cells by intracellular flow cytometry (murine BATF): 2 fold | binding result (c-Jun/BATF heterodimer): binds | binding result (JunB/FosL2 heterodimer): no binding

B4
binding result (BATF/JunB heterodimer [1]): no binding

B5
binding result (BATF/JunB heterodimer [2]): binds
